Laboratory results published in patent US20220072097A1, “PEPTIDES AND METHODS FOR TREATING NEURODEGENERATIVE DISORDERS” (OHIO STATE INNOVATION FOUNDATION, priority 2016, published 2022).

B1: … (protein)
chain: AEESDNVDSADAEEDDSDVWWGGADTDYADGSEDKVVEVAEEEEVAEVEEEEADDDEDDEDGDEVEEEAEEPYEEATERTTSIATTTTTTTESVEEVVR
notes: recombinant human APP fragment, the region between E1 and E2 domains
B2: Full PTPσ extracellular domain: full extracellular domain of PTPσ containing all 3 IG domains and 4 FN domains (protein, UniProt Q13332 30-1282, looked up)
extracellular domain: EEPPRFIKEPKDQIGVSGGVASFVCQATGDPKPRVTWNKKGKKVNSQRFETIEFDESAGAVLRIQPLRTPRDENVYECVAQNSVGEITVHAKLTVLREDQLPSGFPNIDMGPQLKVVERTRTATMLCAASGNPDPEITWFKDFLPVDPSASNGRIKQLRSETFESTPIRGALQIESSEETDQGKYECVATNSAGVRYSSPANLYVRELREVRRVAPRFSILPMSHEIMPGGNVNITCVAVGSPMPYVKWMQGAEDLTPEDDMPVGRNVLELTDVKDSANYTCVAMSSLGVIEAVAQITVKSLPKAPGTPMVTENTATSITITWDSGNPDPVSYYVIEYKSKSQDGPYQIKEDITTTRYSIGGLSPNSEYEIWVSAVNSIGQGPPSESVVTRTGEQAPASAPRNVQARMLSATTMIVQWEEPVEPNGLIRGYRVYYTMEPEHPVGNWQKHNVDDSLLTTVGSLLEDETYTVRVLAFTSVGDGPLSDPIQVKTQQGVPGQPMNLRAEARSETSITLSWSPPRQESIIKYELLFREGDHGREVGRTFDPTTSYVVEDLKPNTEYAFRLAARSPQGLGAFTPVVRQRTLQSKPSAPPQDVKCVSVRSTAILVSWRPPPPETHNGALVGYSVRYRPLGSEDPEPKEVNGIPPTTTQILLEALEKWTQYRITTVAHTEVGPGPESSPVVVRTDEDVPSAPPRKVEAEALNATAIRVLWRSPAPGRQHGQIRGYQVHYVRMEGAEARGPPRIKDVMLADAQWETDDTAEYEMVITNLQPETAYSITVAAYTMKGDGARSKPKVVVTKGAVLGRPTLSVQQTPEGSLLARWEPPAGTAEDQVLGYRLQFGREDSTPLATLEFPPSEDRYTASGVHKGATYVFRLAARSRGGLGEEAAEVLSIPEDTPRGHPQILEAAGNASAGTVLLRWLPPVPAERNGAIVKYTVAVREAGALGPARETELPAAAEPGAENALTLQGLKPDTAYDLQVRAHTRRGPGPFSPPVRYRTFLRDQVSPKNFKVKMIMKTSVLLSWEFPDNYNSPTPYKIQYNGLTLDVDGRTTKKLITHLKPHTFYNFVLTNRGSSLGGLQQTVTAWTAFNLLNGKPSVAPKPDADGFIMVYLPDGQSPVPVQSYFIVMVPLRKSRGGQFLTPLGSPEDMDLEELIQDISRLQRRSLRHSRQLEVPRPYIAARFSVLPPTFHPGDQKQYGGFDNRGLEPGHRYVLFVLAVLQKSEPTFAASPFSDPFQLDNPDPQPIVDGEEG
modifications: extracellular domain
notes: full extracellular domain of PTPσ containing all 3 IG domains and 4 FN domains

How the values were obtained:
PTPσ = assay: Solid phase ELISA binding of recombinant APP domains to PTPσ; set-up: species or system human; conditions: recombinant proteins, solid phase ELISA binding assay
Method: (§1) FIG. 20 Ligand binding site of PTPσ IG1 domain interacts with APP. Binding of human APP fragment (SEQ ID NO:1) with various PTPσ fragments is measured by kinetic ELISA assay. APP fragment corresponds to SEQ ID NO:1, which is a region between E1 and E2 domains. PTPσ fragments used here include IG1,2 (containing IG1 and IG2 domains), ΔLysIG1,2 (containing IG1 and IG2 domains, with lysine 67, 68, 70, 71 mutated to alanine), IG1-FN1 (containing IG1, IG2, IG3 and FN1 domains), ECD (full extracellular domain of PTPσ containing all 3 IG domains and 4 FN domains). Value shown are mean±SEM, n=3 for each group. ***, p≤0.001, Student t test, comparison with the IG1,2.
(§2) Domain regions were subcloned from human APP695 (construct by Denis Selkoe and Tracy Yang labs purchased through Addgene.com) and PTPσ (constructs from Radu Aricescu lab). Recombinant APP and PTPσ proteins were tested in solid phase ELISA binding assays to define the binding regions on each partner. […] Comparing APP binding strength of difference PTPσ fragments, it appears that inclusion of the fibronectin (FN) domains of PTPσ weakens the interaction with APP, likely due to folding of PTPσ that covers up the ligand binding site in its IG1 domain^61.

[1] = molecular target: T1, human APP fragment (SEQ ID NO:1) (Homo sapiens, UniProt P05067); assay: Kinetic ELISA binding of PTPσ fragments to human APP fragment; conditions: recombinant proteins, compared with IG1,2
T1 construct: made in house
Method: as §1, §2

Molecule	Interaction of APP region with PTPσ (PTPσ)	Binding of PTPσ fragment with APP SEQ ID NO:1 [1]
B1	high affinity	
B2		nearly lost binding
